# Results: the MegaScale stability set (Tsuboyama et al. 2023)
# B1: r16_88_TrROS_Hall (parent)
# chain: EVIELKIKFKTPEQREKLKEIAKKLNAEVVEEKDGEVIIRFKTPEQAERALKEAEKLGAEVEL
# Variants of: B1
# Test: folding stability dG (cDNA display proteolysis); higher = more stable
# Conditions: PBS, room temperature
row,Variant,folding stability dG [kcal/mol]
1,EVIELKIKFKTPECREKLKEIAKKLNAEVVEEKDGEVIIRFKTPEQAERALKEAEKLGAEVEL,4.28
2,EVIELKIKFKTPEFREKLKEIAKKLNAEVVEEKDGEVIIRFKTPEQAERALKEAEKLGAEVEL,4.25
3,EVIELKIKFKTPEGREKLKEIAKKLNAEVVEEKDGEVIIRFKTPEQAERALKEAEKLGAEVEL,4.33
4,EVIELKIKFKTPEQREKLKEIAKKFNAEVVEEKDGEVIIRFKTPEQAERALKEAEKLGAEVEL,4.63
5,EVIELKIKFKTPEQREKLKEIAKKKNAEVVEEKDGEVIIRFKTPEQAERALKEAEKLGAEVEL,3.82
6,EVIELKIKFKTPEQREKLKEIAKKLNAEVVEEKDGEVIIRFKTPEQAERALREAEKLGAEVEL,4.45
7,EVIELKIKFKTPEQREKLKEIAKKLNAEVVEEKDGEVIIRFKTPEQAERALNEAEKLGAEVEL,4.26
8,EVIELKIKFKTPEQREKLKEIARKLNAEVVEEKDGEVIIRFKTPEQAERALKEAEKLGAEVEL,4.48
9,EVIELKIKFKTPEQREKLKEIATKLNAEVVEEKDGEVIIRFKTPEQAERALKEAEKLGAEVEL,4.63
10,EVIELKIKFNTPEQREKLKEIAKKLNAEVVEEKDGEVIIRFKTPEQAERALKEAEKLGAEVEL,4.22
11,EVIELKIKFKTPEQREKLKEIAKKLNAEVVEEKDGEVIIREKTPEQAERALKEAEKLGAEVEL,0.961
12,EVIELKIKSKTPEQREKLKEIAKKLNAEVVEEKDGEVIIRFKTPEQAERALKEAEKLGAEVEL,3.85
13,EVIELKIKFKTPEQREKLKEIAKKLNAEVVEEKDGEVIIRFKTAEQAERALKEAEKLGAEVEL,4.58
14,EVIELKIKFKTPEQREKLKEIAKKLNAEVVEEKDGEVIIRFKTDEQAERALKEAEKLGAEVEL,4.15
15,EVIELKHKFKTPEQREKLKEIAKKLNAEVVEEKDGEVIIRFKTPEQAERALKEAEKLGAEVEL,3.18
16,EVIELKIKFKTPEQREKLKEIAKKLNAEVVEEKDGEVIIRFKTPEQAENALKEAEKLGAEVEL,4.35
17,EVIELKIKFKTPEQREKLAEIAKKLNAEVVEEKDGEVIIRFKTPEQAERALKEAEKLGAEVEL,4.18
18,EVIELKIKFKTPEQREKLLEIAKKLNAEVVEEKDGEVIIRFKTPEQAERALKEAEKLGAEVEL,4.5
19,EVIELKIKFKTPEQREKLGEIAKKLNAEVVEEKDGEVIIRFKTPEQAERALKEAEKLGAEVEL,4.38
20,EVIELKIKFKTPEQREKLKEIAKKLNAEVVEEKDGEVIIRFKTPEGAERALKEAEKLGAEVEL,4.48
21,EVIELKIKFKTPEQREKLKEIAKKLNAEVVEEKDGEVIIRFKTPEQAERALKEAEKLGAEVGL,4.46
22,RVIELKIKFKTPEQREKLKEIAKKLNAEVVEEKDGEVIIRFKTPEQAERALKEAEKLGAEVEL,3.94

row,Variant,folding stability dG [kcal/mol]
1,CVIELKIKFKTPEQREKLKEIAKKLNAEVVEEKDGEVIIRFKTPEQAERALKEAEKLGAEVEL,4.27
2,EVIELKIKFKTPEQREKLKEIAKKLNAEVVEEKDGEVVIRFKTPEQAERALKEAEKLGAEVEL,4.44
3,EVIELKIKFKTPEQREKLKEIAKKLNAEVVEEKDGEVSIRFKTPEQAERALKEAEKLGAEVEL,4.26
4,EVIELKIKFKTPEQREKLKEIAKKLNAEVVEEKDGEVRIRFKTPEQAERALKEAEKLGAEVEL,4.28
5,EVIELKIKFKTPEQREKLKEIAKTLNAEVVEEKDGEVIIRFKTPEQAERALKEAEKLGAEVEL,4.48
6,EVIELKIKFKTPEQREKLKEIAKKLNAEVVEEKDIEVIIRFKTPEQAERALKEAEKLGAEVEL,4.51
7,EVIELKIKFKTPEQREKLKEIAKKLNAEVVEEKDFEVIIRFKTPEQAERALKEAEKLGAEVEL,4.24
8,EVIELKIKFKTPEQREKLKLIAKKLNAEVVEEKDGEVIIRFKTPEQAERALKEAEKLGAEVEL,4.87
9,EVIELKIKFKTPEQREKLKFIAKKLNAEVVEEKDGEVIIRFKTPEQAERALKEAEKLGAEVEL,4.98
10,EVIELKIKFKTPEQREKLKEIAKKLNAEVVEEKDGEVIIRFKTPEQAERAYKEAEKLGAEVEL,4.08
11,EVIELKIKFKTPEQREKLKEIAKKLNAEVVEEKDGEVIIRFKTPEQAERANKEAEKLGAEVEL,4.3
12,EVIELKIKFKTPEQREKLKEIAKKLNAEVVEEKDGEVIIRFKTPEQAERALKEAEKNGAEVEL,4.35
13,EVIELKIKFKTPEQREKLKEIAKKLNAEVVEEKDGEVIIRFKTPEQAERALKEAEKWGAEVEL,4.6
14,EVIELKIKFKTPEQREKLKEIAKKLNAEVVEEKDGEVIIRFKTPEQAERALKEAEKAGAEVEL,4.15
15,EVIELKIKFKTWEQREKLKEIAKKLNAEVVEEKDGEVIIRFKTPEQAERALKEAEKLGAEVEL,4.88
16,EVIELKIKFKTKEQREKLKEIAKKLNAEVVEEKDGEVIIRFKTPEQAERALKEAEKLGAEVEL,4.4
17,EVIELKIKFKTFEQREKLKEIAKKLNAEVVEEKDGEVIIRFKTPEQAERALKEAEKLGAEVEL,4.85
18,EVIELKIKFKTIEQREKLKEIAKKLNAEVVEEKDGEVIIRFKTPEQAERALKEAEKLGAEVEL,4.47
19,EVIELKIKFKTPEQREKLKEIAKKLNAEVVEEKDGEVIIRFKTPEQAERALKEAEKLGAEVEA,4.17
20,EVIELNIKFKTPEQREKLKEIAKKLNAEVVEEKDGEVIIRFKTPEQAERALKEAEKLGAEVEL,4.39
21,EVIELCIKFKTPEQREKLKEIAKKLNAEVVEEKDGEVIIRFKTPEQAERALKEAEKLGAEVEL,4.34
22,EVIELKIKFKTPEQREKLKEIAKKLNAEVVEEKNGEVIIRFKTPEQAERALKEAEKLGAEVEL,4.3

row,Variant,folding stability dG [kcal/mol]
1,EVIELKIKFKTPEQREKLKEIAKKLNAEVVEEKCGEVIIRFKTPEQAERALKEAEKLGAEVEL,4.42
2,EVIELKIKFKTPEQREQLKEIAKKLNAEVVEEKDGEVIIRFKTPEQAERALKEAEKLGAEVEL,4.42
3,EVIELKIKFKTPEQREMLKEIAKKLNAEVVEEKDGEVIIRFKTPEQAERALKEAEKLGAEVEL,4.42
4,EVIELKIKFKTPEQDEKLKEIAKKLNAEVVEEKDGEVIIRFKTPEQAERALKEAEKLGAEVEL,4.11
5,EVIELKIKFKTPEQMEKLKEIAKKLNAEVVEEKDGEVIIRFKTPEQAERALKEAEKLGAEVEL,4.31
6,EVIELKIKFKTPEQWEKLKEIAKKLNAEVVEEKDGEVIIRFKTPEQAERALKEAEKLGAEVEL,4.66
7,EVIELKIKFKTPSQREKLKEIAKKLNAEVVEEKDGEVIIRFKTPEQAERALKEAEKLGAEVEL,4.66
8,EVIELKIKFKTPPQREKLKEIAKKLNAEVVEEKDGEVIIRFKTPEQAERALKEAEKLGAEVEL,4.54
9,EVIELKIKFKTPTQREKLKEIAKKLNAEVVEEKDGEVIIRFKTPEQAERALKEAEKLGAEVEL,4.32
10,EVIELKIKFKTPEQREKLKEIAKKLNAEVVEEKDGEVIIRFLTPEQAERALKEAEKLGAEVEL,4.13
11,EVIELKIKFKTPEQREKLKEIAKKLNAEVVEEKDGEVIIRFCTPEQAERALKEAEKLGAEVEL,4.29
12,EVIELKIKFKTPEQREKLKEIAKKLNAEVVEEKDGEVIIRFKTPEQAERDLKEAEKLGAEVEL,2.77
13,EVIELKIKFKTPEQREKLKEIAKKLNAEVVEEKDGEVIIRFKTPEQAERELKEAEKLGAEVEL,3.34
14,EVIELKIKFKTPEQREKLKEIAKKLNGEVVEEKDGEVIIRFKTPEQAERALKEAEKLGAEVEL,4.37
15,EVIELKIKFKTPEQREKLKEIAKKLNLEVVEEKDGEVIIRFKTPEQAERALKEAEKLGAEVEL,4.45
16,ETIELKIKFKTPEQREKLKEIAKKLNAEVVEEKDGEVIIRFKTPEQAERALKEAEKLGAEVEL,4.19
17,EEIELKIKFKTPEQREKLKEIAKKLNAEVVEEKDGEVIIRFKTPEQAERALKEAEKLGAEVEL,4.13
18,EKIELKIKFKTPEQREKLKEIAKKLNAEVVEEKDGEVIIRFKTPEQAERALKEAEKLGAEVEL,4.33
19,EVIELKIKFKTPEQREKLKEIAKKLQAEVVEEKDGEVIIRFKTPEQAERALKEAEKLGAEVEL,4.45
20,EVIELKIKFKTPEQREKLKEIAKKLLAEVVEEKDGEVIIRFKTPEQAERALKEAEKLGAEVEL,4.16
21,EVIELKIKFKTPEQREKLKEIAKKLNAEVVEEKDGEVIIRFKTPEQYERALKEAEKLGAEVEL,4.79
22,EVIELKIKFKTPEQREKLKEIYKKLNAEVVEEKDGEVIIRFKTPEQAERALKEAEKLGAEVEL,4.74

row,Variant,folding stability dG [kcal/mol]
1,EVIELKIKFKTPEQREKLKEIHKKLNAEVVEEKDGEVIIRFKTPEQAERALKEAEKLGAEVEL,4.21
2,EVIELKIKFKTPEQREKLKEIAKKLNAEVVEEKDGEVIIRFKTPEQAERALKEAEKLGWEVEL,4.21
3,EVIELKIKFKTPEQREKLKEIAKKLNAEVVEEKDGEVIIRFKTPEQAERALKEAEKLGIEVEL,4.01
4,EVIEHKIKFKTPEQREKLKEIAKKLNAEVVEEKDGEVIIRFKTPEQAERALKEAEKLGAEVEL,4.34
5,EVIEMKIKFKTPEQREKLKEIAKKLNAEVVEEKDGEVIIRFKTPEQAERALKEAEKLGAEVEL,4.49
6,EVIELKIKFKTPEQREKLKEIAKKLNAEVVEEKDGEVIIRFKTPEQANRALKEAEKLGAEVEL,4.62
7,EVIELKIKFKTPEQREKLKEIAKKLNAKVVEEKDGEVIIRFKTPEQAERALKEAEKLGAEVEL,4.17
8,EVIELKIKFKTPEQREKLKEIAKKLNANVVEEKDGEVIIRFKTPEQAERALKEAEKLGAEVEL,4.17
9,EVIELKIKFKTPEQREKLKEIAKKLNAEVVAEKDGEVIIRFKTPEQAERALKEAEKLGAEVEL,4.29
10,EVIELKIKFKTPEQREKLKEIAKKLNAEVVQEKDGEVIIRFKTPEQAERALKEAEKLGAEVEL,4.57
11,EVIGLKIKFKTPEQREKLKEIAKKLNAEVVEEKDGEVIIRFKTPEQAERALKEAEKLGAEVEL,4.3
12,EVIELKIKFKTPEQREKLKEIAKKLNAEVVEEKDGEVIIRFKTPEQAERALKEANKLGAEVEL,4.42
13,EVIELKIQFKTPEQREKLKEIAKKLNAEVVEEKDGEVIIRFKTPEQAERALKEAEKLGAEVEL,4.14
14,EVIELKIKFKIPEQREKLKEIAKKLNAEVVEEKDGEVIIRFKTPEQAERALKEAEKLGAEVEL,4.59
15,EVIELKIKFKTPEQREKLKEIAKKLNAEVVEEKDGEVIIWFKTPEQAERALKEAEKLGAEVEL,4.77
16,EVIELKIKFKTPEQREKLKEIAKKLNAEVVEEKDGEVIIMFKTPEQAERALKEAEKLGAEVEL,4.64
17,EVIELKIKFKTPEQREKLKEIAKKLNAEVVEEKDGEVIYRFKTPEQAERALKEAEKLGAEVEL,5
18,EVIELKIKFKTPEQREKLKEIAKKLNAEVVEEKDGEVIKRFKTPEQAERALKEAEKLGAEVEL,1.68
19,EVAELKIKFKTPEQREKLKEIAKKLNAEVVEEKDGEVIIRFKTPEQAERALKEAEKLGAEVEL,4.54
